“Also recorded” adds a separate entry of the source.
B1: -024: human monoclonal IgG1 anti-CD38 antibody, VL region SEQ ID No:22 and VH region SEQ ID No:27 (antibody, listed as Homo sapiens, V domains shown)
VH: EVQLVQSGAEVKKPGESLKISCKGSGYSFSNYWIGWVRQMPGKGLEWMGIIYPHDSDARYSPSFQGQVTFSADKSISTAYLQWSSLKASDTAMYYCARHVGWGSRYWYFDLWGRGTLVTVSS
VL: EIVLTQSPATLSLSPGERATLSCRASQSVSSYLAWYQQKPGQAPGLLIYDASNRASGIPARFSGSGSGTDFTLTISSLEPEDFAVYYCQQRSNWPLTFGGGTKVEIK

Experiments:
[1] = target: T1, His-tagged extracellular domain of human CD38 (Homo sapiens, UniProt P28907); test: Enzymatic activity of recombinant CD38 (cGDPR production); type: biochemical; conditions: for cGDPribose production / reduced production of cGDPR: after 90 minutes; for inhibitory effect on the production of cGDPR: recombinant His-CD38
T1 construct: poly-His-tag (N); made in house; secreted into culture supernatant
Protocol: The enzymatic activity of human CD38 was measured in an assay essentially as described in Graeff et al., J. Biol. Chem. 269, 30260-30267 (1994). Briefly, substrate NGD^+ (80 μM) was incubated with CD38 (0.6 μg/ml His-tagged extracellular domain of human CD38, see Example 3 regarding purification of His-CD38) in a buffer containing 20 mM Tris-HCl, pH 7.0. The production of cGDPR can be monitored spectrophotometrically at the emission wavelength of 410 nm (excitation at 300 nm). In this example an excitation filter of 340±60 nm and an emission filter of 430±8 nm was used.
To test the effect of -003, -005 and -024 on the enzymatic activity of CD38, recombinant His-CD38 protein was pre-incubated for 15 min at room temperature with various concentrations (30, 3, 0.3 and 0.03 μg/ml) of the different antibodies before adding the substrate NGD^+. The production of cyclic GDP-ribose (cGDPR) was recorded at different time points after addition of […] (3, 6, 9, 12, 30, 45, 60, 75 and 90 min).

[2] = system: fresh plasma cell leukemia tumor cells; test: ADCC set up II, plasma cell leukemia tumor cells; type: cell-based, human; conditions: in words
Protocol: Human blood from human volunteers (university Erlangen, Erlangen, Germany) was diluted twice in RPMI 1640 and blood cells were layered on Ficoll (Lymphocyte Separation Medium […], 710 g, RT, 20 min; BioWhittaker, Cambrex Bio Science Verviers, Verviers, Belgium, cat. 17-829E, lot no. 0148 32). Peripheral blood mononuclear cells (MNCs) were collected from the interphase, washed and resuspended in RPMI 1640 culture medium supplemented with 10% FCS, 2 mM L-glutamine, 5 U/ml penicillin, 50 μg/ml streptomycin (all derived from BioWhittaker) to which 25 mM HEPES (BioWhittaker) was added.
Target B-cells (fresh plasma cell leukemia tumor cells, JK6L and AMO-1 B-cell lines, obtained from Dr. T. Valerius, University of Erlangen, Erlangen, Germany) were labeled with 20 μCi ^51Cr (Amersham Biosciences, Uppsala, Sweden) for 2 hours. After extensive washing in RPMI-10, cells were adjusted to 1×10^5 cells/ml. […] After incubation (3 hr, 37° C.), assays were stopped by centrifugation, and 51Cr release from triplicates was measured in counts per minute (cpm) in a scintillation counter. Percentage of cellular cytotoxicity was calculated using the following formula: […]
with maximal ^51Cr release determined by adding perchloric acid (3% final concentration) to target cells, and basal release was measured in the absence of sensitizing antibodies and effector cells.

[3] = system: fresh multiple myeloma tumor cells; test: ADCC (51Cr release) of fresh multiple myeloma tumor cells; type: cell-based, human; conditions: in words
Protocol: (§1) Daudi-luc cells, fresh multiple myeloma tumor cells, fresh Plasma Cell Leukemia tumor cells and JK6L and AMO-1 multiple myeloma cells were collected (5×10^6 cells) in RPMI^++ (RPMI 1640 culture medium supplemented with 10% cosmic calf serum (HyClone, Logan, UT, USA)), to which 100 μCi ^51Cr (Chromium-51; Amersham Biosciences Europe GmbH, Roosendaal, The Netherlands) was added, and the mixture was incubated in a 37° C. water bath for 1 hr. After washing of the cells (twice in PBS, 1500 rpm, 5 min), the cells were resuspended in RPMI^++ and counted by trypan blue exclusion. Cells were brought at concentration of 1×10^5 cells/ml.
(§2) Fresh peripheral blood mononuclear cells (healthy volunteers, UMC Utrecht, Utrecht, The Netherlands) were isolated from 40 ml of heparin blood by Ficoll (Bio Whittaker; lymphocyte separation medium, cat 17-829E) according to the manufacturer's instructions. After resuspension of cells in RPMI^++, cells were counted by trypan blue exclusion and brought at concentration of 1×10^7 cells/ml.
50 μl of ^51Cr-labeled targets cells were pipetted into 96-well plates, and 50 μl of antibody was added, diluted in RPMI^++ (final concentrations 10, 1, 0.1, 0.01 μg/ml). […] After spinning down cells (1500 rpm, 5 min), 100 μl of supernatant was harvested into micronic tubes, and counted in gamma counter. The percentage specific lysis was calculated as follows: […]

Daudi-luc cells = test: ADCC (51Cr release) of Daudi-luc cells; type: cell-based; conditions: for lysis of Daudi cells by ADCC: in words
Protocol: as §1, §2
50 μl of ^51Cr-labeled targets cells were pipetted into 96-well plates, and 50 μl of antibody was added, diluted in RPMI^++ (final concentrations 10, 1, 0.1, 0.01 μg/ml). Cells were incubated (RT, 15 min), and 50 μl effector cells were added, resulting in an effector to target ratio of 100:1 (for determination of maximal lysis, 100 μl 5% Triton-X100 was added instead of effector cells; for determination of spontaneous lysis, 50 μl target cells and 100 μl RPMI++ were used). Cells were spun down (500 rpm, 5 min), and incubated (37° C., 5% CO2, 4 hr). After spinning down cells (1500 rpm, 5 min), 100 μl of supernatant was harvested into micronic tubes, and counted in gamma counter. The percentage specific lysis was calculated as follows:
(cpm sample−cpm target cells only)/(cpm maximal lysis−cpm target cells only)
wherein cpm is counts per minute.

CHO-CD38 cells = test: Complement-dependent cytotoxicity of CHO-CD38 cells; type: cell-based; conditions: for CDC-mediated lysis of CHO-CD38 cells: in words
[4] = CDC, CHO-CD38 cells (n = 2), Table 10

Molecule | cGDPribose production ([1]; 0.03 μg/ml antibody) | cGDPribose production ([1]; 0.3 μg/ml antibody) | cGDPribose production ([1]; 3 μg/ml antibody) | reduced production of cGDPR ([1]; 3 μg/ml) | cGDPribose production ([1]; 30 μg/ml antibody) | reduced production of cGDPR ([1]; 30 μg/ml) | inhibitory effect on the production of cGDPR [1] | ADCC of plasma cell leukemia primary tumor cells [2] | ADCC of fresh multiple myeloma tumor cells [3] | Maximal lysis (%) (Daudi-luc cells; ADCC, Daudi target cells, n=5) | EC50 Daudi-luc (Daudi-luc cells; ADCC, Table 2 first column, effector to target ratio 100:1) | ADCC performance compared to rituximab (Daudi-luc cells; Daudi-luc cells) | lysis of Daudi cells by ADCC (Daudi-luc cells) | % Max. lysis (CHO-CD38 cells; [4]) | EC50 (CHO-CD38 cells; [4]) | EC50 CD38-CHO (CHO-CD38 cells; CDC, Table 3) | CDC-mediated lysis of CHO-CD38 cells (CHO-CD38 cells)
-005: human monoclonal IgG1 anti-CD38 antibody, VL region SEQ ID No:12 and VH region SEQ ID No:17 | 102 % of NGD control | 98 % of NGD control | 66 % of NGD control | 34% | 68 % of NGD control | 32% | pronounced inhibitory effect | induce ADCC | ADCC is induced | 49.2% | 0.0045 µg/mL | slightly better than rituximab | induce lysis by ADCC; also recorded: mediate lysis | 76.5 ± 3.54% | 0.15 ± 0.007 µg/mL | 0.14 µg/mL | lysis is induced; also recorded: induce CDC-mediated lysis
B1 | 105 % of NGD control | 104 % of NGD control | 100 % of NGD control |  | 99 % of NGD control |  | No inhibitory effect | induce ADCC | ADCC is induced |  |  |  | induce lysis by ADCC |  |  |  | lysis is induced

Reference: US20240165226A1, “COMBINATION TREATMENT OF CD38-EXPRESSING TUMORS” (GENMAB A/S, priority 2006, published 2024)
